B1: dBr_Jan07_20580 (dsDNA)
DNA 1: AAATACCTATCGATAACCACTCACGTGGTGGTTCGCGTCTGTGTTCCGTTGTCCGTGCTG
DNA 2: CAGCACGGACAACGGAACACAGACGCGAACCACCACGTGAGTGGTTATCGATAGGTATTT
B2: dBr_Jan07_28926 (dsDNA)
DNA 1: CGCAGCCATTACCGCGTGGGAGTATTCGCCCGTACGGTCTGTGTTCCGTTGTCCGTGCTG
DNA 2: CAGCACGGACAACGGAACACAGACCGTACGGGCGAATACTCCCACGCGGTAATGGCTGCG
B3: dBr_Jan07_02651 (dsDNA)
DNA 1: TGCATAACGACCGGCACGTGCCTTTCATATGTATCTGTCTGTGTTCCGTTGTCCGTGCTG
DNA 2: CAGCACGGACAACGGAACACAGACAGATACATATGAAAGGCACGTGCCGGTCGTTATGCA
B4: dBr_Jan07_03394 (dsDNA)
DNA 1: ATGGACCAATTGCGCGGAATGACGTGTCGCGCACGTGTCTGTGTTCCGTTGTCCGTGCTG
DNA 2: CAGCACGGACAACGGAACACAGACACGTGCGCGACACGTCATTCCGCGCAATTGGTCCAT
B5: dBr_Jan07_16170 (dsDNA)
DNA 1: TACTAGATTACTACAGACGTTTGCGATCACGTGCATGTCTGTGTTCCGTTGTCCGTGCTG
DNA 2: CAGCACGGACAACGGAACACAGACATGCACGTGATCGCAAACGTCTGTAGTAATCTAGTA
B6: dBr_Jan07_03400 (dsDNA)
DNA 1: ACGTCGGCTATGATTTCACGCTATTCTAAGACACGTGTCTGTGTTCCGTTGTCCGTGCTG
DNA 2: CAGCACGGACAACGGAACACAGACACGTGTCTTAGAATAGCGTGAAATCATAGCCGACGT
B7: dBr_Jan07_17036 (dsDNA)
DNA 1: ACATTTCTCCGCTCGTCCCACATAGCGTCACGTGGGGTCTGTGTTCCGTTGTCCGTGCTG
DNA 2: CAGCACGGACAACGGAACACAGACCCCACGTGACGCTATGTGGGACGAGCGGAGAAATGT
B8: dBr_Jan07_28790 (dsDNA)
DNA 1: CTATTCCGATGCCATAAAACTTTCCACTCCACGTGTGTCTGTGTTCCGTTGTCCGTGCTG
DNA 2: CAGCACGGACAACGGAACACAGACACACGTGGAGTGGAAAGTTTTATGGCATCGGAATAG
B9: dBr_Jan07_40749 (dsDNA)
DNA 1: CTTCATGTCGCCCGCGTGGGTTGCCACACCAAGTGCGTCTGTGTTCCGTTGTCCGTGCTG
DNA 2: CAGCACGGACAACGGAACACAGACGCACTTGGTGTGGCAACCCACGCGGGCGACATGAAG
B10: dBr_Jan07_18904 (dsDNA)
DNA 1: CCCGGATAATATTTCGGCTTCAAGAATCACGTGGAAGTCTGTGTTCCGTTGTCCGTGCTG
DNA 2: CAGCACGGACAACGGAACACAGACTTCCACGTGATTCTTGAAGCCGAAATATTATCCGGG
B11: dBr_Jan07_10488 (dsDNA)
DNA 1: ACCTCGGACATGCACATTTGTCTTAAACCACGTGCGGTCTGTGTTCCGTTGTCCGTGCTG
DNA 2: CAGCACGGACAACGGAACACAGACCGCACGTGGTTTAAGACAAATGTGCATGTCCGAGGT
B12: dBr_Jan07_39189 (dsDNA)
DNA 1: GGCTTGCATTGTTGGGCCCACGTGTTGATTGTCTAAGTCTGTGTTCCGTTGTCCGTGCTG
DNA 2: CAGCACGGACAACGGAACACAGACTTAGACAATCAACACGTGGGCCCAACAATGCAAGCC
B13: dBr_Jan07_14817 (dsDNA)
DNA 1: AGCGAGAGGCTGCTCACTCGTGGCAACACCCACGTGGTCTGTGTTCCGTTGTCCGTGCTG
DNA 2: CAGCACGGACAACGGAACACAGACCACGTGGGTGTTGCCACGAGTGAGCAGCCTCTCGCT
B14: dBr_Jan07_02368 (dsDNA)
DNA 1: CTGTAGAACTGGCATCTTCAATCCACCGCGTGGTGAGTCTGTGTTCCGTTGTCCGTGCTG
DNA 2: CAGCACGGACAACGGAACACAGACTCACCACGCGGTGGATTGAAGATGCCAGTTCTACAG
B15: dBr_Jan07_13408 (dsDNA)
DNA 1: CCGCGCGCAGGCACTTAGGGTACCTGCTGTCCACGTGTCTGTGTTCCGTTGTCCGTGCTG
DNA 2: CAGCACGGACAACGGAACACAGACACGTGGACAGCAGGTACCCTAAGTGCCTGCGCGCGG
B16: dBr_Jan07_16225 (dsDNA)
DNA 1: ACATTCCTAGCTATTACTTGGTAGCTCTCAGCACGTGTCTGTGTTCCGTTGTCCGTGCTG
DNA 2: CAGCACGGACAACGGAACACAGACACGTGCTGAGAGCTACCAAGTAATAGCTAGGAATGT
B17: dBr_Jan07_36232 (dsDNA)
DNA 1: CCATGCCAACTAGGCGCACGTGATTGTTCGAGAACTGTCTGTGTTCCGTTGTCCGTGCTG
DNA 2: CAGCACGGACAACGGAACACAGACAGTTCTCGAACAATCACGTGCGCCTAGTTGGCATGG
B18: dBr_Jan07_20372 (dsDNA)
DNA 1: TCGTTTGTACACGTGGGTTTGCAAGAGTAAGTGTCCGTCTGTGTTCCGTTGTCCGTGCTG
DNA 2: CAGCACGGACAACGGAACACAGACGGACACTTACTCTTGCAAACCCACGTGTACAAACGA
B19: dBr_Jan07_31948 (dsDNA)
DNA 1: TGTCATTACCTGTCCGAGCAGGACAAAAAACCACGTGTCTGTGTTCCGTTGTCCGTGCTG
DNA 2: CAGCACGGACAACGGAACACAGACACGTGGTTTTTTGTCCTGCTCGGACAGGTAATGACA
B20: dBr_Jan07_13904 (dsDNA)
DNA 1: CGCTGCCCCATATTTGTCATGCGTTTGCGGCACGTGGTCTGTGTTCCGTTGTCCGTGCTG
DNA 2: CAGCACGGACAACGGAACACAGACCACGTGCCGCAAACGCATGACAAATATGGGGCAGCG
B21: dBr_Jan07_25426 (dsDNA)
DNA 1: TCTCTGTGCGGCGGGGTCCATAGCACGCACGTGTTAGTCTGTGTTCCGTTGTCCGTGCTG
DNA 2: CAGCACGGACAACGGAACACAGACTAACACGTGCGTGCTATGGACCCCGCCGCACAGAGA
B22: dBr_Jan07_32059 (dsDNA)
DNA 1: CCGGTCACTGCCGGTGATGCCCTGCTTTATCACGTGGTCTGTGTTCCGTTGTCCGTGCTG
DNA 2: CAGCACGGACAACGGAACACAGACCACGTGATAAAGCAGGGCATCACCGGCAGTGACCGG
B23: dBr_Jan07_25672 (dsDNA)
DNA 1: TCACGCACCCCGCAAGCGCAACCACGTGGTAAGGGTGTCTGTGTTCCGTTGTCCGTGCTG
DNA 2: CAGCACGGACAACGGAACACAGACACCCTTACCACGTGGTTGCGCTTGCGGGGTGCGTGA
B24: dBr_Jan07_01481 (dsDNA)
DNA 1: CCGCCAGCATTTCCTGCTTTGCACGTGTAAGATACCGTCTGTGTTCCGTTGTCCGTGCTG
DNA 2: CAGCACGGACAACGGAACACAGACGGTATCTTACACGTGCAAAGCAGGAAATGCTGGCGG
B25: dBr_Jan07_08390 (dsDNA)
DNA 1: GTATTGTTGCGTATGTCACGTGGTACAAAACCCAGGGTCTGTGTTCCGTTGTCCGTGCTG
DNA 2: CAGCACGGACAACGGAACACAGACCCTGGGTTTTGTACCACGTGACATACGCAACAATAC
B26: dBr_Jan07_27306 (dsDNA)
DNA 1: ACTATACAGTTTATTCATACACGGGTGCCTGCACGTGTCTGTGTTCCGTTGTCCGTGCTG
DNA 2: CAGCACGGACAACGGAACACAGACACGTGCAGGCACCCGTGTATGAATAAACTGTATAGT
B27: dBr_Jan07_17567 (dsDNA)
DNA 1: CCAAGAGGACCACGTGCTTTGGTCTCTAACTCGTATGTCTGTGTTCCGTTGTCCGTGCTG
DNA 2: CAGCACGGACAACGGAACACAGACATACGAGTTAGAGACCAAAGCACGTGGTCCTCTTGG
B28: dBr_Jan07_17989 (dsDNA)
DNA 1: GTCACGTGAATGCGACCCGCCAATTGGAAATTAAATGTCTGTGTTCCGTTGTCCGTGCTG
DNA 2: CAGCACGGACAACGGAACACAGACATTTAATTTCCAATTGGCGGGTCGCATTCACGTGAC
B29: dBr_Jan07_23881 (dsDNA)
DNA 1: CATATTAGACCGGCGTATACGCACGTGGCGTAGATTGTCTGTGTTCCGTTGTCCGTGCTG
DNA 2: CAGCACGGACAACGGAACACAGACAATCTACGCCACGTGCGTATACGCCGGTCTAATATG
B30: dBr_Jan07_01836 (dsDNA)
DNA 1: GTCGAGAATCCAATACGCCACGTGCATACGTACGTCGTCTGTGTTCCGTTGTCCGTGCTG
DNA 2: CAGCACGGACAACGGAACACAGACGACGTACGTATGCACGTGGCGTATTGGATTCTCGAC
B31: dBr_Jan07_06714 (dsDNA)
DNA 1: TTCCGCGTGGACGTGACATCGTAGACGATTACCCACGTCTGTGTTCCGTTGTCCGTGCTG
DNA 2: CAGCACGGACAACGGAACACAGACGTGGGTAATCGTCTACGATGTCACGTCCACGCGGAA
B32: dBr_Jan07_32554 (dsDNA)
DNA 1: CGACGTTGTCTGACGAATAATGCCGAGCGGACACGTGTCTGTGTTCCGTTGTCCGTGCTG
DNA 2: CAGCACGGACAACGGAACACAGACACGTGTCCGCTCGGCATTATTCGTCAGACAACGTCG
B33: dBr_Jan07_41742 (dsDNA)
DNA 1: AGAGTCATTGGGGAGGCAAAATTCCCACGTGTATCGGTCTGTGTTCCGTTGTCCGTGCTG
DNA 2: CAGCACGGACAACGGAACACAGACCGATACACGTGGGAATTTTGCCTCCCCAATGACTCT

These binders were tested against WT Max (Homo sapiens, UniProt P61244-2 13-93, M65Nle, norleucine written as M; other non-natural residues written as X) (assay: PBM; 50-200 nM protein; PBS, 2% milk, BSA, salmon testes DNA, 0.02% Triton X-100). Settings: chain copies: 2; label: surface-attached array probe.
Chain of WT Max (P61244 other isoform, or with tags, fused parts or gaps M65Nle): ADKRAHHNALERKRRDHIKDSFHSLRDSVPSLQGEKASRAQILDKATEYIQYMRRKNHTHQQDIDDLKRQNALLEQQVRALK
For B1, the binding signal was 3.85 robust z of log adjusted intensity (ours), mean of two arrays.
For B2, the binding signal was 3.92 robust z of log adjusted intensity (ours), mean of two arrays.
B3 was tested, and the binding signal was 3.82 robust z of log adjusted intensity (ours), mean of two arrays.
For B4, the binding signal was 3.89 robust z of log adjusted intensity (ours), mean of two arrays.
B5 was tested, and the binding signal was 5.85 robust z of log adjusted intensity (ours), mean of two arrays.
In the case of B6, the binding signal is reported as 4.73 robust z of log adjusted intensity (ours), mean of two arrays.
With B7 the binding signal was 4.03 robust z of log adjusted intensity (ours), mean of two arrays.
For B8, the binding signal was 4.91 robust z of log adjusted intensity (ours), mean of two arrays.
For B9, the binding signal was 4.44 robust z of log adjusted intensity (ours), mean of two arrays.
B10 was tested, and the binding signal was 4.33 robust z of log adjusted intensity (ours), mean of two arrays.
For B11, the binding signal was 4.16 robust z of log adjusted intensity (ours), mean of two arrays.
For B12, the binding signal was 4.2 robust z of log adjusted intensity (ours), mean of two arrays.
In the case of B13, the binding signal is reported as 4.16 robust z of log adjusted intensity (ours), mean of two arrays.
B14 was tested, and the binding signal was 5.5 robust z of log adjusted intensity (ours), mean of two arrays.
B15 was tested, and the binding signal was 4.13 robust z of log adjusted intensity (ours), mean of two arrays.
B16 was tested, and the binding signal was 4.26 robust z of log adjusted intensity (ours), mean of two arrays.
B17 was tested, and the binding signal was 4.03 robust z of log adjusted intensity (ours), mean of two arrays.
B18 was tested, and the binding signal was 4.3 robust z of log adjusted intensity (ours), mean of two arrays.
B19 was tested, and the binding signal was 4.44 robust z of log adjusted intensity (ours), mean of two arrays.
B20 was tested, and the binding signal was 3.73 robust z of log adjusted intensity (ours), mean of two arrays.
For B21, the binding signal was 4.48 robust z of log adjusted intensity (ours), mean of two arrays.
In the case of B22, the binding signal is reported as 4.08 robust z of log adjusted intensity (ours), mean of two arrays.
For B23, the binding signal was 6.01 robust z of log adjusted intensity (ours), mean of two arrays.
With B24 the binding signal was 4.74 robust z of log adjusted intensity (ours), mean of two arrays.
With B25 the binding signal was 4.12 robust z of log adjusted intensity (ours), mean of two arrays.
B26 was tested, and the binding signal was 3.99 robust z of log adjusted intensity (ours), mean of two arrays.
For B27, the binding signal was 3.82 robust z of log adjusted intensity (ours), mean of two arrays.
B28 was tested, and the binding signal was 4.17 robust z of log adjusted intensity (ours), mean of two arrays.
With B29 the binding signal was 4.35 robust z of log adjusted intensity (ours), mean of two arrays.
With B30 the binding signal was 3.94 robust z of log adjusted intensity (ours), mean of two arrays.
For B31, the binding signal was 4.26 robust z of log adjusted intensity (ours), mean of two arrays.
B32 was tested, and the binding signal was 4.1 robust z of log adjusted intensity (ours), mean of two arrays.
B33 was tested, and the binding signal was 4.07 robust z of log adjusted intensity (ours), mean of two arrays.
